Each substance was assayed against HLA-A*02:01 (Homo sapiens, UniProt P04439, D140Y/D185E/D98H/E176V/E277Q/G131W/G231S/I119V/I121R/I166T/I218V/L300P/L318F/N151K/N90K/P208A/P217A/Q86G/Q94H/R138H/R169H/T345S) (assay: MHC binding assay: UV-ligand exchange with beta2m ELISA (exchange yield)). Conditions: binding to HLA-A*02:01, β2m ELISA.
Procedure, shortened: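 Exchange yield reflects how much β2m remains bound, measured by ELISA: streptavidin capture of 100-fold diluted monomers, HRP anti-β2m at 37° C. for 1 h, TMB read at 450 nm. Monomers come from UV cleavage of a conditional HLA-A*02:01 ligand in the presence of the candidate peptide.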

Peptide exchange (MHC class I binding score, peptide exchange yield) | Substance
“++” (≥20% = ++) | 524 (ALIENLTHQI; listed as Homo sapiens) [compound 524]
“+++” (≥50 = +++) | 328 (ALNDQVFEI; listed as Homo sapiens) [compound 328]
“+++” (≥50 = +++) | 195 (GLFADLLPRL; listed as Homo sapiens) [compound 195]
“++” (≥20% = ++) | 217 (ALIHPVSTV; listed as Homo sapiens) [compound 217]
“+++” (≥50 = +++) | 584 (ALAEVAAMENV; listed as Homo sapiens) [compound 584]
“++” (≥20% = ++) | 376 (AMFESSQNVLL; listed as Homo sapiens) [compound 376]
“+++” (≥50 = +++) | 215 (QLINHLHAV; listed as Homo sapiens) [compound 215]
“+” (≥10% = +) | 230 (ILVDWLVEV; listed as Homo sapiens) [compound 230]
“++” (≥20% = ++) | 99 (ALVSKGLATV; listed as Homo sapiens) [compound 99]
“+++” (≥50 = +++) | 85 (KMSELRVTL; listed as Homo sapiens) [compound 85]
“++” (≥20% = ++) | 409 (LLDAMNYHL; listed as Homo sapiens) [compound 409]
“++” (≥20% = ++) | 402 (VLFSGALLGL; listed as Homo sapiens) [compound 402]
“++” (≥20% = ++) | 47 (ILLSVPLLVV; listed as Homo sapiens) [compound 47]
“+++” (≥50 = +++) | 155 (RVANLHFPSV; listed as Homo sapiens) [compound 155]
“++++” (≥75% = ++++) | 19 (FMVDNEAIYDI; listed as Homo sapiens) [compound 19]
“+++” (≥50 = +++) | 614 (LLLPDQPPYHL; listed as Homo sapiens) [compound 614]
“++” (≥20% = ++) | 354 (LILEGVDTV; listed as Homo sapiens) [compound 354]
“+++” (≥50 = +++) | 120 (ALLGIPLTLV; listed as Homo sapiens) [compound 120]
“+++” (≥50 = +++) | 556 (FLTDLEDLTL; listed as Homo sapiens) [compound 556]
“++” (≥20% = ++) | 393 (GLLDTQTSQVLTA; listed as Homo sapiens) [compound 393]
“++” (≥20% = ++) | 197 (ALGPEGGRV; listed as Homo sapiens) [compound 197]
“+++” (≥50 = +++) | 142 (FLFATPVFI; listed as Homo sapiens) [compound 142]
“+++” (≥50 = +++) | 208 (KISPVTFSV; listed as Homo sapiens) [compound 208]
“++++” (≥75% = ++++) | 387 (ALFQATAEV; listed as Homo sapiens) [compound 387]
“+++” (≥50 = +++) | 22 (IMEENPGIFAV; listed as Homo sapiens) [compound 22]

Peptide exchange (MHC class I binding score, peptide exchange yield) | Substance
“+++” (≥50 = +++) | 537 (TLAPGEVLRSV; listed as Homo sapiens) [compound 537]
“+++” (≥50 = +++) | 586 (KLKPGDLVGV; listed as Homo sapiens) [compound 586]
“+++” (≥50 = +++) | 281 (ILRESTEEL; listed as Homo sapiens) [compound 281]
“+++” (≥50 = +++) | 214 (FLLDLDPLLL; listed as Homo sapiens) [compound 214]
“++” (≥20% = ++) | 566 (VIADGGIQNV; listed as Homo sapiens) [compound 566]
“+++” (≥50 = +++) | 569 (KLVDRTWTL; listed as Homo sapiens) [compound 569]
“++” (≥20% = ++) | 209 (KLIESKHEV; listed as Homo sapiens) [compound 209]
“+++” (≥50 = +++) | 13 (YLMDESLNL; listed as Homo sapiens) [compound 13]
“++” (≥20% = ++) | 491 (GLNDRSDAV; listed as Homo sapiens) [compound 491]
“+++” (≥50 = +++) | 578 (FLDPGGPMMKL; listed as Homo sapiens) [compound 578]
“++++” (≥75% = ++++) | 137 (TLVLTLPTV; listed as Homo sapiens) [compound 137]
“++” (≥20% = ++) | 526 (RLAEVGQYEQV; listed as Homo sapiens) [compound 526]
“+++” (≥50 = +++) | 488 (FLAEDPKVTL; listed as Homo sapiens) [compound 488]
“+++” (≥50 = +++) | 450 (FMIDASVHPTL; listed as Homo sapiens) [compound 450]
“++++” (≥75% = ++++) | 10 (FLATFPLAAV; listed as Homo sapiens) [compound 10]
“+++” (≥50 = +++) | 530 (VMYADIGGMDI; listed as Homo sapiens) [compound 530]
“++++” (≥75% = ++++) | 466 (VLIANLEKL; listed as Homo sapiens) [compound 466]
“+++” (≥50 = +++) | 287 (FLNEFFLNV; listed as Homo sapiens) [compound 287]
“++++” (≥75% = ++++) | 289 (VLLEIEDLQV; listed as Homo sapiens) [compound 289]
“+++” (≥50 = +++) | 249 (LLDGFLVNV; listed as Homo sapiens) [compound 249]
“+++” (≥50 = +++) | 515 (LLQELVLFL; listed as Homo sapiens) [compound 515]
“++” (≥20% = ++) | 513 (SLWPSPEQL; listed as Homo sapiens) [compound 513]
“+++” (≥50 = +++) | 224 (TLIDAQWVL; listed as Homo sapiens) [compound 224]
“+++” (≥50 = +++) | 219 (KLSDIGITV; listed as Homo sapiens) [compound 219]
“+++” (≥50 = +++) | 334 (TLTKVLVAL; listed as Homo sapiens) [compound 334]

— patent US10280205B2, “Method for treating cancer with an activated T lymphocyte that selectively recognizes a cancer cell consisting of specific peptide” (immatics biotechnologies GmbH, priority 2015, dated 2019)
